The target of the test is human Claudin 18.2 (hClaudin18.2) (human) (UniProt P56856). The experiment in a line: flow cytometry on CHO cells overexpressing claudin18.2. For orientation: A flow cytometer gives signals particle by particle.

Usually EC50 stands for the concentration that produces a half-maximal response. Higher therefore signals weaker potency.

For the substance IMAB362-FC (Fc fusion), the EC50 came out at 2 µg/mL.

For the origin of these results see patent publication US20250270313A1.
